Patent US5834290

Target: stratum corneum chymotryptic enzyme (SCCE), native, from human plantar stratum corneum (human)

hydrolysis of S-2586 by the proteinase associated with plantar stratum corneum cells, Activity (%): 6 % activity
Substance: soybean trypsin inhibitor (SBTI) (from UniProt P01070)
